# Measurements reported in the supplement of paper PMC7125110.
# ± gives the standard error. Variants at the floor of the assay were thinned out.
# B1: glmS ribozyme (parent)
# chain: AUAAAAGCGCCAGAACUACAGAAAUGUAGUUGACGAGGAGGAGGUUUAUCGAAUUUUCGGCGGAUGCCUCCAAA
# Assays:
# Conditions in all cases: with glucosamine-6-phosphate
# [1] = variants of: B1; experiment: self-cleavage kobs at 160 uM GlcN6P; higher = faster cleavage; RNA array
# In short: (§1)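 Using a hybridised Cy3 probe at 37 °C, barcoded ribozyme variants transcribed in situ by E. coli RNA polymerase on sequenced MiSeq chips were monitored across tiles imaged over ~14 h. The flow contained glucosamine-6-phosphate from 40 μM to 10 mM in HEPES/KCl/Mg(OAc)2 buffer. Signals were normalised to baseline and to non-cleaving reference variants before per-tile medians were fit to one- or two-exponential decays to yield kobs. Weighted Michaelis–Menten fits across concentrations gave kcat and KM.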
# [2] = variants of: B1; experiment: self-cleavage kobs at 640 uM GlcN6P; higher = faster cleavage; RNA array
# In short: as §1
# [3] = variants of: B1; experiment: self-cleavage kobs at 2500 uM GlcN6P; higher = faster cleavage; RNA array
# In short: as §1
# [4] = variants of: B1; experiment: self-cleavage kobs at 10000 uM GlcN6P; higher = faster cleavage; RNA array
# In short: as §1
variant,measurement,setting,value
G9A G38A G51A,self-cleavage kobs at 160 uM GlcN6P,[1],< 1e-05 s⁻¹
same,self-cleavage kobs at 640 uM GlcN6P,[2],< 1e-05 s⁻¹
same,self-cleavage kobs at 2500 uM GlcN6P,[3],< 1e-05 s⁻¹
G9A G29U A36C,self-cleavage kobs at 160 uM GlcN6P,[1],< 1e-05 s⁻¹
same,self-cleavage kobs at 640 uM GlcN6P,[2],< 1e-05 s⁻¹
same,self-cleavage kobs at 2500 uM GlcN6P,[3],< 1e-05 s⁻¹
A6C G41U C68U C70A,self-cleavage kobs at 160 uM GlcN6P,[1],< 1e-05 s⁻¹
same,self-cleavage kobs at 2500 uM GlcN6P,[3],3.76e-05 ± 1.6e-05 s⁻¹
G7A C11A A52U C70A,self-cleavage kobs at 160 uM GlcN6P,[1],< 1e-05 s⁻¹
same,self-cleavage kobs at 640 uM GlcN6P,[2],< 1e-05 s⁻¹
same,self-cleavage kobs at 2500 uM GlcN6P,[3],< 1e-05 s⁻¹
A6C G35C U46A C61A,self-cleavage kobs at 160 uM GlcN6P,[1],< 1e-05 s⁻¹
same,self-cleavage kobs at 640 uM GlcN6P,[2],< 1e-05 s⁻¹
same,self-cleavage kobs at 2500 uM GlcN6P,[3],< 1e-05 s⁻¹
G7A G37U,self-cleavage kobs at 160 uM GlcN6P,[1],< 1e-05 s⁻¹
same,self-cleavage kobs at 640 uM GlcN6P,[2],< 1e-05 s⁻¹
same,self-cleavage kobs at 2500 uM GlcN6P,[3],< 1e-05 s⁻¹
same,self-cleavage kobs at 10000 uM GlcN6P,[4],< 1e-05 s⁻¹
C8G G51U A64U,self-cleavage kobs at 160 uM GlcN6P,[1],< 1e-05 s⁻¹
same,self-cleavage kobs at 640 uM GlcN6P,[2],< 1e-05 s⁻¹
C8U A39U U46C U56C G59U,self-cleavage kobs at 160 uM GlcN6P,[1],< 1e-05 s⁻¹
same,self-cleavage kobs at 640 uM GlcN6P,[2],< 1e-05 s⁻¹
same,self-cleavage kobs at 2500 uM GlcN6P,[3],< 1e-05 s⁻¹
G9A A14U A36C U46G,self-cleavage kobs at 160 uM GlcN6P,[1],< 1e-05 s⁻¹
same,self-cleavage kobs at 2500 uM GlcN6P,[3],< 1e-05 s⁻¹
C8A G9A G37U A39G,self-cleavage kobs at 160 uM GlcN6P,[1],< 1e-05 s⁻¹
G7U A15C A36U U47C,self-cleavage kobs at 160 uM GlcN6P,[1],< 1e-05 s⁻¹
same,self-cleavage kobs at 640 uM GlcN6P,[2],< 1e-05 s⁻¹
same,self-cleavage kobs at 2500 uM GlcN6P,[3],< 1e-05 s⁻¹
A6G A15U A52U,self-cleavage kobs at 160 uM GlcN6P,[1],< 1e-05 s⁻¹
same,self-cleavage kobs at 640 uM GlcN6P,[2],< 1e-05 s⁻¹
same,self-cleavage kobs at 2500 uM GlcN6P,[3],< 1e-05 s⁻¹
